System: Escherichia coli TOP10
Assay: shrunken log2 fold change of peptide-encoding DNA abundance (4.5 h post-induction vs induction); higher = less antimicrobial activity (less host growth inhibition)
Conditions: time post-induction: 4.5 h; library: site-saturation at positions 5, 18, 19, 20
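Further: peptides expressed intracellularly from a pBAD plasmid library in pooled LB shake-flask culture, induced with 0.3% L-arabinose, DNA abundance read by NGS, three biological replicates, DESeq2 with apeglm shrinkage.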

Sequence | shrunken log2 fold change
RRIRYRPPRLPRPRPRPMAQPRP | -0.0848
RRIRLRPPRLPRPRPRPWKIPRP | 0.095
RRIRHRPPRLPRPRPRPCAEPRP | -0.228
RRIRIRPPRLPRPRPRPAGDPRP | 0.0386
RRIRFRPPRLPRPRPRPHYMPRP | -0.737
RRIRTRPPRLPRPRPRPIFYPRP | -0.315
RRIRMRPPRLPRPRPRPWEKPRP | 0.217
RRIRTRPPRLPRPRPRPEGHPRP | 0.0274
RRIRTRPPRLPRPRPRPWKHPRP | -0.529
RRIRIRPPRLPRPRPRPRRTPRP | -0.0386
RRIRVRPPRLPRPRPRPNQAPRP | 0.0159
RRIRCRPPRLPRPRPRPTREPRP | 0.684
RRIRNRPPRLPRPRPRPIMLPRP | -0.482
RRIRSRPPRLPRPRPRPGTEPRP | 0.0221
RRIRARPPRLPRPRPRPPWMPRP | 0.463
RRIRRRPPRLPRPRPRPESVPRP | 0.075
RRIRFRPPRLPRPRPRPYQFPRP | 0.0166
RRIRCRPPRLPRPRPRPPHYPRP | 0.638
RRIRYRPPRLPRPRPRPQLKPRP | -0.526
RRIRARPPRLPRPRPRPQSDPRP | 0.0175

Sequence | shrunken log2 fold change
RRIRNRPPRLPRPRPRPGRQPRP | 0.0171
RRIRYRPPRLPRPRPRPDKIPRP | -0.155
RRIRARPPRLPRPRPRPFSVPRP | -0.107
RRIRQRPPRLPRPRPRPRWRPRP | 0.557
RRIRERPPRLPRPRPRPLSIPRP | -0.367
RRIRYRPPRLPRPRPRPVWFPRP | -0.129
RRIRRRPPRLPRPRPRPRKLPRP | 0.253
RRIRPRPPRLPRPRPRPVWRPRP | 0.516
RRIRARPPRLPRPRPRPILKPRP | 0.221
RRIRKRPPRLPRPRPRPVCRPRP | 0.245
RRIRFRPPRLPRPRPRPLHMPRP | -1.06
RRIRLRPPRLPRPRPRPNIWPRP | -0.0307
RRIRIRPPRLPRPRPRPRMYPRP | -0.33
RRIRCRPPRLPRPRPRPAMNPRP | -0.0385
RRIRDRPPRLPRPRPRPSSGPRP | -0.0626
RRIRLRPPRLPRPRPRPIGWPRP | 0.156
RRIRLRPPRLPRPRPRPMEGPRP | 0.0303
RRIRCRPPRLPRPRPRPREVPRP | 0.415
RRIRERPPRLPRPRPRPRGVPRP | 0.309
RRIRKRPPRLPRPRPRPGDEPRP | 0.128

Sequence | shrunken log2 fold change
RRIRERPPRLPRPRPRPRLNPRP | -0.156
RRIRYRPPRLPRPRPRPEMKPRP | 0.206
RRIRPRPPRLPRPRPRPPEHPRP | 0.0484
RRIRQRPPRLPRPRPRPNQHPRP | 0.0696
RRIRFRPPRLPRPRPRPRFPPRP | 0.0497
RRIRTRPPRLPRPRPRPPLTPRP | 0.13
RRIRQRPPRLPRPRPRPSYAPRP | 0.0242
RRIRPRPPRLPRPRPRPETTPRP | -0.0108
RRIRVRPPRLPRPRPRPTRYPRP | -0.0106
RRIRKRPPRLPRPRPRPEICPRP | 0.661
RRIRIRPPRLPRPRPRPCANPRP | -0.234
RRIRYRPPRLPRPRPRPTWKPRP | -0.333
RRIRNRPPRLPRPRPRPCSQPRP | -0.0135
RRIRIRPPRLPRPRPRPTVTPRP | -0.303
RRIRVRPPRLPRPRPRPRFGPRP | 0.249
RRIRYRPPRLPRPRPRPALCPRP | -0.0404
RRIRMRPPRLPRPRPRPHSVPRP | 0.0764
RRIRRRPPRLPRPRPRPMYAPRP | 0.148
RRIRGRPPRLPRPRPRPQCRPRP | 0.0701
RRIRNRPPRLPRPRPRPSWDPRP | 0.039

— the supplement of paper PMC9112550, “Optimization of the antimicrobial peptide Bac7 by deep mutational scanning” (BMC Biology, 2022)
